One test has as its target Prekallikrein (PK) (UniProt P03952 20-638, limits assumed). Put plainly: Western blot. In general terms: In western blotting, separated proteins are transferred to a membrane and probed.
In another test the target is T1, human factor XI (human, UniProt P03951 19-625).
T1 construct: Disulfide-bonded homodimer of about 160 kDa; also called FXI; human FXI
Nature of the test: Western blot of plasma.

The target in the next test is baboon factor XI (baboon (Papio anubis)). Put plainly: cell-based or functional assay.

Sequence of Prekallikrein (PK) (P03952 20-638 limits assumed): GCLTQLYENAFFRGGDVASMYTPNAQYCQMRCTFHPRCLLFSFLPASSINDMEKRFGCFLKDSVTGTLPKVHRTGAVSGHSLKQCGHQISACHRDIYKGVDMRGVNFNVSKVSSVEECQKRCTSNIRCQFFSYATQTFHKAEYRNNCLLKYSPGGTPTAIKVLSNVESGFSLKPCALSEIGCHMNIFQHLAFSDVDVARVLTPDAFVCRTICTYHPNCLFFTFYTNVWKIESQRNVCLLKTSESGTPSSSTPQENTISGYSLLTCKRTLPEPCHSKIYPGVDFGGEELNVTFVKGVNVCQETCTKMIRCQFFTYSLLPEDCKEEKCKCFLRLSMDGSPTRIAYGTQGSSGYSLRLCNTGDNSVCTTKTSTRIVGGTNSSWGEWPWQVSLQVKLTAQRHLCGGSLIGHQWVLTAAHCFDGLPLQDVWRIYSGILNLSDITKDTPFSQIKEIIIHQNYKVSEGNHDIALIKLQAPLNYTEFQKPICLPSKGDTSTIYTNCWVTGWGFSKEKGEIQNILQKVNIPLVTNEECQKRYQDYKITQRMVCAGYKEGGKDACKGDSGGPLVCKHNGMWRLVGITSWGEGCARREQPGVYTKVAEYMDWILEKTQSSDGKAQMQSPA
T1 sequence (P03951 19-625 I95Y limits assumed): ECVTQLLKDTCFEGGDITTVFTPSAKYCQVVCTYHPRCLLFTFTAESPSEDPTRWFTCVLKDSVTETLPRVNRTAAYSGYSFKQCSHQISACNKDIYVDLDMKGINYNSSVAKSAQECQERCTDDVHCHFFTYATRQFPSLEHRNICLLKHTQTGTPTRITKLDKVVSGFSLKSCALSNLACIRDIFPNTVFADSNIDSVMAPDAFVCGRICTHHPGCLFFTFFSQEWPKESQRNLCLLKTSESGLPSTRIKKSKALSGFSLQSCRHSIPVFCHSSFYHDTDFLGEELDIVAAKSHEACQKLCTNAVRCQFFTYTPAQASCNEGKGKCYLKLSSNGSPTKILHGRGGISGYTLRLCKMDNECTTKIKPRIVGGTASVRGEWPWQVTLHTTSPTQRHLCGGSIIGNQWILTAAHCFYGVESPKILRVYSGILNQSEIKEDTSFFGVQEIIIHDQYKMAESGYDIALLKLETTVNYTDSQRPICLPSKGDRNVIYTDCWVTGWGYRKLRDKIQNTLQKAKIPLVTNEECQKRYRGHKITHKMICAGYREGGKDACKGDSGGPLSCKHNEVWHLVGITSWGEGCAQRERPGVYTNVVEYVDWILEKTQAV

B1: anti-factor XI monoclonal antibody 1A6 (aXIMab) (antibody, V domains shown)
VH: QVTLKESGPGILKPSQTLSLTCSFSGFSLSTSGMGVGWIRQPSGKGLEWLAHIWWDDDKYYNPSLKSQLTISKDTSRNQVFLKITSVDAADTATYYCARKRSSVVAHYYAMDYWGQGTSVTVSS
VL: DIVLTQSPASLAVSLGQRATISCKASQSVDYDGDSYLNWYQQKPGQPPKLLIYAASNLESGIPARFSGSGSGTDFTLNIHPVEEEDAATYYCQQSNGDPWTFGGGTKLEIK
notes: also called anti-FXI monoclonal antibody
Regarding B1, the results for the binding result with Prekallikrein (PK) and in the test with human factor XI were “no binding” and “binds”, respectively. Besides, the “IC50 in a clotting assay using FXI deficient human plasma with serial dilutions of NBP as standards” value in the test with baboon factor XI came out at 2.5 nM.

Values taken from patent US20150322163A1 (OREGON HEALTH AND SCIENCE UNIVERSITY, published 2015).
